Experiment [1] concerns the target T1, baboon IL-12 (PBMC supernatant) (baboon).
T1 chain 1: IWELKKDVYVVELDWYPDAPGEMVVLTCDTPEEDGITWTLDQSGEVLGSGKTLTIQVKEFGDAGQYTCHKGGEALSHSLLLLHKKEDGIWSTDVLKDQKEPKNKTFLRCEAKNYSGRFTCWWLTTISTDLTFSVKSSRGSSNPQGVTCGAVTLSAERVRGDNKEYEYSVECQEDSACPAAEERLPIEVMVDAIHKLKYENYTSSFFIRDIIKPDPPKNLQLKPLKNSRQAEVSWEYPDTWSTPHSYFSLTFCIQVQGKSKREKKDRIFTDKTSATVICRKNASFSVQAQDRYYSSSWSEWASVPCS
T1 chain 2: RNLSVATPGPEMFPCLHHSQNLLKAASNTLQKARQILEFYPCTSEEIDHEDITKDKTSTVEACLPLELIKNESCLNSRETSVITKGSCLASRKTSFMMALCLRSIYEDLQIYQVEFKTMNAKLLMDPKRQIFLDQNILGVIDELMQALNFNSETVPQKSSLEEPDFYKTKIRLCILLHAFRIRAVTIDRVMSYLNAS
The experiment in a line: cell-based or functional assay.

Experiment [2] addresses T2, dog IL-12 (PBMC supernatant) (dog, UniProt Q28267 26-222; Q28268 23-329).
T2 sequence (looked up) 1: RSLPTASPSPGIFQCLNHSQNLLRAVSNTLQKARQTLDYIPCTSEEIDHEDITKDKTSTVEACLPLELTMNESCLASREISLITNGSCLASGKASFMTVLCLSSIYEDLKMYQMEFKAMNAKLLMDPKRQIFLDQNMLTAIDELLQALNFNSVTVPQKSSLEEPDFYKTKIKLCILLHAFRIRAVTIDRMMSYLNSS
T2 sequence (looked up) 2: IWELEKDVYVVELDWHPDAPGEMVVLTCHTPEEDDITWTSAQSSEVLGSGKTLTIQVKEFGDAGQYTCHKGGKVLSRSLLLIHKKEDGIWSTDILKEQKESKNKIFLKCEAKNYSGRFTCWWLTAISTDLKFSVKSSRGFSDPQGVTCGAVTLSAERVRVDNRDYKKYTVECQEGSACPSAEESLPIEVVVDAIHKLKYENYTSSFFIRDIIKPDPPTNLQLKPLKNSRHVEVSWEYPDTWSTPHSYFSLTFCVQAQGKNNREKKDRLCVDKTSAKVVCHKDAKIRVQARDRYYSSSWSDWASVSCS
The experiment can be described thus: cell-based or functional assay.

Experiment [3] addresses T3, cynomolgus IL-12 (PBMC supernatant) (cynomolgus monkey).
T3 chain 1: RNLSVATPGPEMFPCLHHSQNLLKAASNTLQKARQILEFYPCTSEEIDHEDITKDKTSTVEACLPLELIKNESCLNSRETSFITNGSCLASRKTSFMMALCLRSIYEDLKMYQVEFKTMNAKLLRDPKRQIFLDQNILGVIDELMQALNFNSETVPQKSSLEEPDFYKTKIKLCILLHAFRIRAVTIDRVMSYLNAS
T3 chain 2: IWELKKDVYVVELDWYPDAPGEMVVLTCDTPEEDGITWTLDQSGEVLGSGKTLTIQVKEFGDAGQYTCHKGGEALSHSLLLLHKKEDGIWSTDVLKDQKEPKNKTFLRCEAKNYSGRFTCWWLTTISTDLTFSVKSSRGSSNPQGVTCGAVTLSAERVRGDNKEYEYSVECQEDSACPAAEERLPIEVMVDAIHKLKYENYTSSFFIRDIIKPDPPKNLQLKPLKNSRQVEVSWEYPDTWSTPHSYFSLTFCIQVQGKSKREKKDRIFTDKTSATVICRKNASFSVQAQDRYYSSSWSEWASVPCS
The experiment can be described thus: cell-based or functional assay.

For experiment [4], the target named is T4, recombinant rhesus IL-12 (rhesus monkey, UniProt P48091 23-219; P48095 23-328).
T4 sequence (looked up) 1: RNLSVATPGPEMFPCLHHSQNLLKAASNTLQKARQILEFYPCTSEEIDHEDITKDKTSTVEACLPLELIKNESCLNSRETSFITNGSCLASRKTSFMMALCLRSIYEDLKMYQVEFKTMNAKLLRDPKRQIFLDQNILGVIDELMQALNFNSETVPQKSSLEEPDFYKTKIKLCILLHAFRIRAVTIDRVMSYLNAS
T4 sequence (looked up) 2: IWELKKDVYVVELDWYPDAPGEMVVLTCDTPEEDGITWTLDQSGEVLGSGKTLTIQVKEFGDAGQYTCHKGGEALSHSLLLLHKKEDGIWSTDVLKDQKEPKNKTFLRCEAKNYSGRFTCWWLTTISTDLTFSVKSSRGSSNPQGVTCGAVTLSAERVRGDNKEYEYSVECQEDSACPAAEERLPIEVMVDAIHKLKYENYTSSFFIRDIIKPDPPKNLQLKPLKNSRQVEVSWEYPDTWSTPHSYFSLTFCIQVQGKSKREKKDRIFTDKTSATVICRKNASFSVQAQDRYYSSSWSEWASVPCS
The experiment in a line: cell-based or functional assay.

For experiment [5], the target named is T5, recombinant human IL-12 (rhIL-12) (human, UniProt P29459 23-219; P29460 23-328).
T5 sequence (looked up) 1: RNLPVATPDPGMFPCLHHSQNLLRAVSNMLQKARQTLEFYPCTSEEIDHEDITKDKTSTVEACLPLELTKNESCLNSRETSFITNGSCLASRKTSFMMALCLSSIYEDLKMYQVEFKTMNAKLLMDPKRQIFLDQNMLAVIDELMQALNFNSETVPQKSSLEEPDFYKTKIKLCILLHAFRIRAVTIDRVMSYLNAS
T5 sequence (looked up) 2: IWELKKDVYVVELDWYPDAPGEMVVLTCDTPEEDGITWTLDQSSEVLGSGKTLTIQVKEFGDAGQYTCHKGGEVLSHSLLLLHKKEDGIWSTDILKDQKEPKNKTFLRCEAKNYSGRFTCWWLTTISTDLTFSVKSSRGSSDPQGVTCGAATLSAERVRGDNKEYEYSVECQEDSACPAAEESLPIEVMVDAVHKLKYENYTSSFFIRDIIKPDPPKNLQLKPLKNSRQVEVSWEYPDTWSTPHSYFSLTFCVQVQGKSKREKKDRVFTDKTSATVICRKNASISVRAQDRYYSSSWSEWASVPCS
The experiment can be described thus: cell-based or functional assay.

Experiment [6] concerns the target T6, murine IL-12 (mouse, UniProt P43431 23-215; P43432 23-335).
T6 construct: Purified or recombinant murine IL-12 (R&D Systems, Cat. No. 419-ML in the BIAcore test); also called mouse IL-12; rmIL12
T6 sequence (looked up) 1: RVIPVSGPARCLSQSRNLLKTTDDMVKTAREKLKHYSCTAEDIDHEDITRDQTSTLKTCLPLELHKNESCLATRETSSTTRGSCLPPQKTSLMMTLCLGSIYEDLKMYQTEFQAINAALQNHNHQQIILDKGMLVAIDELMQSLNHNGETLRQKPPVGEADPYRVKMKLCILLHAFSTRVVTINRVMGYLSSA
T6 sequence (looked up) 2: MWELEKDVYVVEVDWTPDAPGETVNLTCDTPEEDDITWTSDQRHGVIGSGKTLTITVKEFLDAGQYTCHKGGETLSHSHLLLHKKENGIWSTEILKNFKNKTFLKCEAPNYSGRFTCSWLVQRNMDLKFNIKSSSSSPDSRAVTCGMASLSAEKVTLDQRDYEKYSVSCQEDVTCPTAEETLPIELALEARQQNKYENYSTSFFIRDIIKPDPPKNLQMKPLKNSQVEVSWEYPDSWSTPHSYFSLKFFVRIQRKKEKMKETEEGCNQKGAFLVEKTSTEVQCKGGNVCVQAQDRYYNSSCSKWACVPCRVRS
The experiment in a line: neutralization bioassay with non-human IL-12 (murine 2D6 cell proliferation). The method, then: 2D6 cells were washed once and resuspended in RPMI complete medium containinγβME to a cell density of 1×10⁵ cells/ml. […] The culture contents were harvested and counted by liquid scintillation counting. All samples were assayed in duplicate.

The record followed here is patent US20150037348A1 (AbbVie / Abbott, published 2015).

B1: J695 (antibody, human IgG1, V domains shown)
VH: QVQLVESGGGVVQPGRSLRLSCAASGFTFSSYGMHWVRQAPGKGLEWVAFIRYDGSNKYYADSVKGRFTISRDNSKNTLYLQMNSLRAEDTAVYYCKTHGSHDNWGQGTMVTVSS
VL: QSVLTQPPSVSGAPGQRVTISCSGSRSNIGSNTVKWYQQLPGTAPKLLIYYNDQRPSGVPDRFSGSKSGTSASLAITGLQAEDEADYYCQSYDRYTHPALLFGTGTKVTVLG
notes: human IgG1 with lambda light chain
Take B1: the “IC50 (M), bioassay, Baboon IL-12 PBMC sup” value in experiment [1] was found to be 1.5e-11 M. Besides, in experiment [2], the “IC50 (M), bioassay, Dog IL-12 PBMC sup” value was determined as 3.5e-10 M. Besides, in experiment [3], the “IC50 (M), bioassay, Cyno IL-12 PBMC sup” value came to 1e-11 M. In addition, the “IC50 (M), bioassay, Rhesus IL-12 Purified” value in experiment [4] was found to be 1e-11 M. In addition, the “IC50 (M), bioassay, Human IL-12 Purified” value in experiment [5] is 5e-12 M.

B2: J695 (antibody, V domains shown)
VH: QVQLVESGGGVVQPGRSLRLSCAASGFTFSSYGMHWVRQAPGKGLEWVAFIRYDGSNKYYADSVKGRFTISRDNSKNTLYLQMNSLRAEDTAVYYCKTHGSHDNWGQGTMVTVSS
VL: QSVLTQPPSVSGAPGQRVTISCSGSRSNIGSNTVKWYQQLPGTAPKLLIYYNDQRPSGVPDRFSGSKSGTSASLAITGLQAEDEADYYCQSYDRYTHPALLFGTGTKVTVLG
notes: Human IgG1 with lambda light chain (detected with anti-human lambda); Made in CHO or COS cells
On to B2, for which the binding result in experiment [6] is “no binding”.
